The results in this text go back to paper PMC9706529, “Identification of a S-(2-succino)cysteine breakdown pathway that uses a novel S-(2-succino) lyase” (The Journal of Biological Chemistry, 2022).

One series addresses T1, D. dadantii 2SL (Dd) (Dickeya dadantii, UniProt E0SKP1).
T1 construct: gene Dda3937_00284; full-length, N-terminal hexahistidine tag (pET28b), expressed in E. coli BL21-(DE3)-RIPL, Ni-NTA purified; tag removal not mentioned
T1 sequence (E0SKP1 1-454): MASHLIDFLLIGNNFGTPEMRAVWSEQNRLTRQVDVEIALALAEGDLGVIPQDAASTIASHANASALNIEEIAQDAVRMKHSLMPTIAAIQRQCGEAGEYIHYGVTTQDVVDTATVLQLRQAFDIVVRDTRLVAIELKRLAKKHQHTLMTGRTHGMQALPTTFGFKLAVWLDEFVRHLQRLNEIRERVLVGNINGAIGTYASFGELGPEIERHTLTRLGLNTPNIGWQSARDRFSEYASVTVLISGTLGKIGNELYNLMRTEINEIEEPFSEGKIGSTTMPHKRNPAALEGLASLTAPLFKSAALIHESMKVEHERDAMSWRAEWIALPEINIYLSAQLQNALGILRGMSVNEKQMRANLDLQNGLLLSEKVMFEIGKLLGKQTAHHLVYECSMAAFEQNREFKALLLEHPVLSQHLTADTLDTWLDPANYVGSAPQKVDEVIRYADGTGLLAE
The series is described as follows: HPLC, […] nm, 2SNAC synthesis. It is filed as biochemical. To be noted: 50 mM Tris-HCl pH 8.0, 21 °C, 4.0 mM NAC; synthesis direction; read-out: Kinetic parameter / Km.

Another series addresses T2, E. italicus 2SL (Ei) (Enterococcus italicus, UniProt E6LDH5).
T2 construct: gene purB; full-length, N-terminal hexahistidine tag (pET28b), expressed in E. coli BL21-(DE3)-RIPL, Ni-NTA purified; tag removal not mentioned
T2 sequence (E6LDH5 1-455): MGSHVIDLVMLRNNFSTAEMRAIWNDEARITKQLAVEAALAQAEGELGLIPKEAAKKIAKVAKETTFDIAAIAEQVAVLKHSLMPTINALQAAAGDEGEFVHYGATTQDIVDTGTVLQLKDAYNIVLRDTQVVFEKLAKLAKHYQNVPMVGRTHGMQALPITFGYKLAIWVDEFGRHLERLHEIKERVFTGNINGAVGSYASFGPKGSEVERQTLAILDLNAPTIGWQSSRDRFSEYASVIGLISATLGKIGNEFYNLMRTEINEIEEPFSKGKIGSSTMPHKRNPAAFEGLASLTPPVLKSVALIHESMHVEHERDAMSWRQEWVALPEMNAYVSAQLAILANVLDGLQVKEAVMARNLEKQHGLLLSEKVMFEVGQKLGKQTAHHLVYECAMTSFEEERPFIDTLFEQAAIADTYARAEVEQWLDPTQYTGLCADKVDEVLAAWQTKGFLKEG
The series is described as follows: HPLC, […] nm, 2SNAC synthesis. It is filed as biochemical. To be noted: 50 mM Tris-HCl pH 8.0, 21 °C, 4.0 mM NAC; synthesis direction; read-out: Kinetic parameter / Km.

Substrate in series [1]: N[C@@H](CS)C(=O)O
The series is described as follows: purified protein. It is filed as biochemical, Dickeya dadantii. The following applies: 50 mM Tris-HCl pH 8.0, 21 °C, 30 mM fumarate, synthesis direction.

Substrate in series [2]: CC(=O)N[C@@H](CSC(CC(=O)O)C(=O)O)C(=O)O
The experiment in a line: purified protein. It is filed as biochemical, Dickeya dadantii. To be noted: 100 mM Tris-HCl pH 8.0, 21 °C, 40 mM glutamate, 2 mM NAD+, breakdown direction.

Substrate in series [3]: N[C@@H](CSC(CC(=O)O)C(=O)O)C(=O)O
The experiment in a line: purified protein. It is filed as biochemical, Dickeya dadantii. The following applies: 100 mM Tris-HCl pH 8.0, 21 °C, 40 mM glutamate, 2 mM NAD+, breakdown direction.

Substrate in series [4]: CC(=O)N[C@@H](CS)C(=O)O
The experiment in a line: purified protein. The class given is biochemical, Dickeya dadantii. To be noted: 50 mM Tris-HCl pH 8.0, 21 °C, 30 mM fumarate, synthesis direction.

Substrate in series [5]: N[C@@H](CS)C(=O)O
The series is described as follows: purified protein. It is filed as biochemical, Enterococcus italicus. The following applies: 50 mM Tris-HCl pH 8.0, 21 °C, 30 mM fumarate, synthesis direction.

Substrate in series [6]: CC(=O)N[C@@H](CSC(CC(=O)O)C(=O)O)C(=O)O
The experiment in a line: purified protein. It is filed as biochemical, Enterococcus italicus. To be noted: 100 mM Tris-HCl pH 8.0, 21 °C, 40 mM glutamate, 2 mM NAD+, breakdown direction.

Substrate in series [7]: N[C@@H](CSC(CC(=O)O)C(=O)O)C(=O)O
The series is described as follows: purified protein. It is filed as biochemical, Enterococcus italicus. To be noted: 100 mM Tris-HCl pH 8.0, 21 °C, 40 mM glutamate, 2 mM NAD+, breakdown direction.

Substrate in series [8]: CC(=O)N[C@@H](CS)C(=O)O
The experiment in a line: purified protein. It is filed as biochemical, Enterococcus italicus. To be noted: 50 mM Tris-HCl pH 8.0, 21 °C, 30 mM fumarate, synthesis direction.

As to `O=C(O)/C=C/C(=O)O` [fumarate], the Km turned out to be 3240 ± 300 µM on D. dadantii 2SL (Dd) and 230 ± 20 µM at E. italicus 2SL (Ei).

B1: D. dadantii 2SL (Dd) (Dickeya dadantii 3937) (protein)
chain: T1 sequence (E0SKP1 1-454)
notes: full-length, N-terminal hexahistidine tag (pET28b), expressed in E. coli BL21-(DE3)-RIPL, Ni-NTA purified; tag removal not mentioned
The Vmax is the rate approached at saturating substrate. Broadly, the kcat is the maximal rate divided by the concentration of active sites. One may read the kcat/Km as the second-order rate constant that governs catalysis at low substrate concentration. With B1, the Km in the series “purified protein [1]” was 19000 ± 1900 µM; in “purified protein [2]”, 1200 ± 220 µM; in the series “purified protein [3]”, 12300 ± 1100 µM; in “purified protein [4]”, 690 ± 50 µM. Further, the Vmax worked out at 11.1 µmol/min/mg in the series “purified protein [1]”, 0.4 µmol/min/mg in the series “purified protein [2]”, 0.069 µmol/min/mg in “purified protein [3]” and 27.6 µmol/min/mg in “purified protein [4]”. Further, the kcat was 9.7 ± 0.4 s⁻¹ in “purified protein [1]”, 0.35 ± 0.05 s⁻¹ in “purified protein [2]”, 0.06 ± 0.004 s⁻¹ in the series “purified protein [3]” and 24.2 ± 3.7 s⁻¹ in “purified protein [4]”. Also, the kcat/Km was 510 M⁻¹ s⁻¹ in “purified protein [1]”, 290 M⁻¹ s⁻¹ in “purified protein [2]”, 4.9 M⁻¹ s⁻¹ in the series “purified protein [3]” and 35000 M⁻¹ s⁻¹ in “purified protein [4]”.

B2: E. italicus 2SL (Ei) (Enterococcus italicus DSM 15952) (protein)
chain: T2 sequence (E6LDH5 1-455)
notes: as for B1
In the case of B2, in the series “purified protein [5]”, the Km amounted to 17800 ± 3600 µM, the Vmax was found to be 11.9 µmol/min/mg, the kcat was 10.4 ± 1.5 s⁻¹ and the kcat/Km turned out to be 580 M⁻¹ s⁻¹. In the series “purified protein [6]”, the Km was determined as 1400 ± 100 µM, the Vmax was 2.42 µmol/min/mg, the kcat is 2.12 ± 0.21 s⁻¹ and the kcat/Km worked out at 1510 M⁻¹ s⁻¹. In the series “purified protein [7]”, the Km came out at 10700 ± 2300 µM, the Vmax is 0.058 µmol/min/mg, the kcat was found to be 0.051 ± 0.004 s⁻¹ and the kcat/Km stood at 4.7 M⁻¹ s⁻¹. Also, in the series “purified protein [8]”, the Km was 390 ± 30 µM, the Vmax stood at 105 µmol/min/mg, the kcat was found to be 92.1 ± 7.1 s⁻¹ and the kcat/Km turned out to be 236000 M⁻¹ s⁻¹.
